Measurements as given in patent US20090117096A1 (Scripps Research, published 2009).

Columns and labels:
integrin α5β1 = target: T1, integrin α5β1 (human, UniProt P08648 42-1049; P05556 21-798); assay: flow cytometry on human tumor cell panel (FIG. 1)
T1 construct: whole, on cells
Protocol: Flow cytometry. scFv binding to human tumor cells was analyzed by flow cytometry, initially with cloned scFv phage and then with purified scFv protein. […] Binding/washing buffer was TBS with or without divalent cations (1 mM Ca²⁺, 1 mM Mg²⁺, 0.2 mM Mn²⁺). […] All samples were counter stained with propidium iodide (PI) and analyzed on a Becton-Dickinson FACScan, with live gate set to exclude PI positive cells.

integrin αvβ5 = target: T2, integrin αvβ5 (human, UniProt P06756 31-1048; P18084 24-799); assay: flow cytometry on human tumor cell panel (summary statement)
T2 construct: whole, on cells

integrin αvβ1 = target: T3, integrin αvβ1 (human, UniProt P06756 31-1048; P05556 21-798); assay: as above
T3 construct: whole, on cells
T3 sequence (P06756 31-1048, chain 1 of 2): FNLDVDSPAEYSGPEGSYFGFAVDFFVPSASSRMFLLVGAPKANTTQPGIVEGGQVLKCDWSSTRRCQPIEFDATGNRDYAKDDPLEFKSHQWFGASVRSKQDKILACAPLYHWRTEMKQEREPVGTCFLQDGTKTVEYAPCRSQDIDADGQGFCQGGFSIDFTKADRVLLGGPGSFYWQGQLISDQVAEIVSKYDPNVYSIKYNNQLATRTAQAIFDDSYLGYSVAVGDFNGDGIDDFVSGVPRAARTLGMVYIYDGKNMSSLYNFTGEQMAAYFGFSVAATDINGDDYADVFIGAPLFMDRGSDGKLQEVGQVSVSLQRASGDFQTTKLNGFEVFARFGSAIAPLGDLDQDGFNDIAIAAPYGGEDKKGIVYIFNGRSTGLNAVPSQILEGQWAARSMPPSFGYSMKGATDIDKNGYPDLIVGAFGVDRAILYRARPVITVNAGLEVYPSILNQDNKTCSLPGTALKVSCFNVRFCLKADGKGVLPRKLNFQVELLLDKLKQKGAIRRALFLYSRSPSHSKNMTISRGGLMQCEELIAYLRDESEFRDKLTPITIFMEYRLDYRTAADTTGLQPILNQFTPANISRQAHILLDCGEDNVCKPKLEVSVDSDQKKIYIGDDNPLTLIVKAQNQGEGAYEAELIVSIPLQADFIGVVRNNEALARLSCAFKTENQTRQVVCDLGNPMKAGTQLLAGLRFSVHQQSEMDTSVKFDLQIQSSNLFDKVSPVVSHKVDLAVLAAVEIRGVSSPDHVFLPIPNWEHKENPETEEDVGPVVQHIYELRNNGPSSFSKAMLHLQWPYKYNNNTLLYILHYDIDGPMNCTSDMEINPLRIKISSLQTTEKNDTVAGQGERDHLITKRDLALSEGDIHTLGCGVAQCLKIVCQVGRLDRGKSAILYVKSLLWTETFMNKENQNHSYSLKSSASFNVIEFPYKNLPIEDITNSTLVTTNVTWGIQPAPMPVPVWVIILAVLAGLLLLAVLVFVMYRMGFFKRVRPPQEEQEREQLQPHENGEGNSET
T3 sequence (P05556 21-798, chain 2 of 2): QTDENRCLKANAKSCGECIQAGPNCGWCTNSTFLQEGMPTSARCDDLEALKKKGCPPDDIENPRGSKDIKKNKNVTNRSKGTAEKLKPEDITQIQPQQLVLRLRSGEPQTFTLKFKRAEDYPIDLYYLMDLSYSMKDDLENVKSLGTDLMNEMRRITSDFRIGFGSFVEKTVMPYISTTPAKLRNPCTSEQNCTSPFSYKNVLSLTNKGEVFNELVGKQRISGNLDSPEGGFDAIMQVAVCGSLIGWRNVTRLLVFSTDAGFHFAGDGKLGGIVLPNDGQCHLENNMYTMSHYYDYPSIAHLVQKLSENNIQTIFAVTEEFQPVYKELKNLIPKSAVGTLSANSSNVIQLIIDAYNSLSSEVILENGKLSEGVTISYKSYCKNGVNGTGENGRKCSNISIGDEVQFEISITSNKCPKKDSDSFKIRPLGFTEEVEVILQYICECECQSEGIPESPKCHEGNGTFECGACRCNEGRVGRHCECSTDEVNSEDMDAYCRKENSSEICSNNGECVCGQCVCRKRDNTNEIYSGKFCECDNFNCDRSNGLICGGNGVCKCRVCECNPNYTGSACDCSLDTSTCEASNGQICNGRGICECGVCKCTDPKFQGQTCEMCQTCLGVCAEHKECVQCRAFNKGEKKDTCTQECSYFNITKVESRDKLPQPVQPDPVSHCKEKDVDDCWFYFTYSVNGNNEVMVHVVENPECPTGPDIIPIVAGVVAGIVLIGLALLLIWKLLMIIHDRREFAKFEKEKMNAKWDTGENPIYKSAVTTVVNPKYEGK

Measured: binding result

T1 sequence (P08648 42-1049, chain 1 of 2): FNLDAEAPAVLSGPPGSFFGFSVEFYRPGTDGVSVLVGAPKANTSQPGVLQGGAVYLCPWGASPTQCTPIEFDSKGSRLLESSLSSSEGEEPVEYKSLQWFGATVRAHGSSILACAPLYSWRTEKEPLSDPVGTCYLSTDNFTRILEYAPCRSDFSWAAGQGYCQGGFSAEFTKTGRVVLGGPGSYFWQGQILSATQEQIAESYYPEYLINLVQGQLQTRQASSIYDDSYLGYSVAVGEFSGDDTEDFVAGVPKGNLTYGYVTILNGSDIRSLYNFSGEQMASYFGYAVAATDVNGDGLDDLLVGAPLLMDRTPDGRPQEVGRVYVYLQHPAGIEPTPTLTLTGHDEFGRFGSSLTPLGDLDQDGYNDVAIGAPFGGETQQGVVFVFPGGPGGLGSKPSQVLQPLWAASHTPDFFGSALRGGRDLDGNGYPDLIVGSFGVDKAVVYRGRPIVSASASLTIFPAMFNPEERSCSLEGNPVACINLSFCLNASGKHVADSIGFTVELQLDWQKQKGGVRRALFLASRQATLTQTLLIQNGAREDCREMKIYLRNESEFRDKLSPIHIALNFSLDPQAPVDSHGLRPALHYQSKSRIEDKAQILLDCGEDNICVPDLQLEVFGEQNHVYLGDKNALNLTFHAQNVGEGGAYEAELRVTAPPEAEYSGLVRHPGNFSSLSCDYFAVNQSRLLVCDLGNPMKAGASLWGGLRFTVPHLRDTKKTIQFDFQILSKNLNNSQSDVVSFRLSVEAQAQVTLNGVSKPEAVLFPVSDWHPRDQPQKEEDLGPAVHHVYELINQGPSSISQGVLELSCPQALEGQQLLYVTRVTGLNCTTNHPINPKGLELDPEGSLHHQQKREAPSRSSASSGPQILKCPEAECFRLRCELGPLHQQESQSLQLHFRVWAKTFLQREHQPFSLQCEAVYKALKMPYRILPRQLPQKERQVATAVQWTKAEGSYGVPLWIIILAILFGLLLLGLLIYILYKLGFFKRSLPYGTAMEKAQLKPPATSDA
T1 sequence (P05556 21-798, chain 2 of 2): as the sequence (P05556 21-798, chain 2 of 2) above
T2 sequence (P06756 31-1048, chain 1 of 2): as the sequence (P06756 31-1048, chain 1 of 2) above
T2 sequence (P18084 24-799, chain 2 of 2): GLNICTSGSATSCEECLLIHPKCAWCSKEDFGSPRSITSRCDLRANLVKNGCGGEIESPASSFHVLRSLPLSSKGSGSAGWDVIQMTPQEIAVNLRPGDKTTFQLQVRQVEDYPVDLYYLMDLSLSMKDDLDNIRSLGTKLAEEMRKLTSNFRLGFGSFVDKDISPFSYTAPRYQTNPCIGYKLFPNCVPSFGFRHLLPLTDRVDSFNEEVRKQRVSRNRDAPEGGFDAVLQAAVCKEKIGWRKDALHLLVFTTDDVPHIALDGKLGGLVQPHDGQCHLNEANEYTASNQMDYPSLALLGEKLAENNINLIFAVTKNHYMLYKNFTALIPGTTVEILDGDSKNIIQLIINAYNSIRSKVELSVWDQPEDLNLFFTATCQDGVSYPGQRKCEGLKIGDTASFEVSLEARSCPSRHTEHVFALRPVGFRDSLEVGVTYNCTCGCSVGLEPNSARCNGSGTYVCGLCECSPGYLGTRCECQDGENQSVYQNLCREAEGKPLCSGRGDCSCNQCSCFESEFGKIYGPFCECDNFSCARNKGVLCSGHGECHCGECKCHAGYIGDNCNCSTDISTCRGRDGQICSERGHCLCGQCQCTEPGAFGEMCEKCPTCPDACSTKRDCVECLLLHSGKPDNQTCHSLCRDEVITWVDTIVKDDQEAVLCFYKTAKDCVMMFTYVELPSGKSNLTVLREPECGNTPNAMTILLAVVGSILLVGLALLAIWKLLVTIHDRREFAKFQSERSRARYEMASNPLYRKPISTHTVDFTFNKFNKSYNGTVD

B1: scFv antibody Bc-12 (scFv)
scFv: MAQVQLVQSGAEVKKPGASVKVSCKASGYTFSNYGITWVRQAPGQGLEWMGWINNGNTHYAQKFQGRVTMTTDTSTSTAYMELRSLRSDDTAVYYCARDPRGDDEPYWGQGTLVTVSSGGGGSGGGGSGGGGSEIVLTQSPLSLPVTLGQPASISCRSSQNLVYSDGNTYLSWFQQRPGQSPRRLIYKVSNRDSGVPDRFSGSGSGTDFTLKISRVEAEDIGVYYCMQGTHWPPRTFGQGTKVEIKRGLGGLVDYKDDDDK
notes: also called scFv Bc-12
no binding: all assays above
